According to publication PMC7764960, “Nucleus Accumbens-Associated Protein 1 Binds DNA Directly through the BEN Domain in a Sequence-Specific Manner”:

What was measured:
NAC1 (322-485) [1] = target: T1, NAC1 (322-485) (Homo sapiens, UniProt Q96RE7 322-485); assay: ITC; first of two sequential events (Kd1); ITC: 20 mM HEPES pH 7.0, 0.1 M NaCl, 1 mM TCEP, 20 C (Fig 2 legend says 25 C); pull-down: 4 C with 10 ug poly(dI/dC), buffer not stated; NMR 298 K; settings: protein: recombinant; tags: His (pET28HisTEV); blunt
T1 sequence: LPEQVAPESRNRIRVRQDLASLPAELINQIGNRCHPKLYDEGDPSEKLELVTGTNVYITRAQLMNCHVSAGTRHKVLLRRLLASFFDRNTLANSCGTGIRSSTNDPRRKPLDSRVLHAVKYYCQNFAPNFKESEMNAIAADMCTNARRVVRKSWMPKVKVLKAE

NAC1 (322-485) [2] = target: T1, NAC1 (322-485); assay: ITC; single event; ITC: 20 mM HEPES pH 7.0, 0.1 M NaCl, 1 mM TCEP, 20 C (Fig 2 legend says 25 C); pull-down: 4 C with 10 ug poly(dI/dC), buffer not stated; NMR 298 K; settings: protein: recombinant; tags: His (pET28HisTEV); blunt
GST-NAC1 = target: T2, GST-NAC1 (Homo sapiens, UniProt Q96RE7 2-527); assay: pull-down; poly(dI/dC); ITC: 20 mM HEPES pH 7.0, 0.1 M NaCl, 1 mM TCEP, 20 C (Fig 2 legend says 25 C); pull-down: 4 C with 10 ug poly(dI/dC), buffer not stated; NMR 298 K; settings: protein: recombinant; tags: GST N-term; chain copies: 2; label: 5' biotin on sense strand; blunt
T2 sequence: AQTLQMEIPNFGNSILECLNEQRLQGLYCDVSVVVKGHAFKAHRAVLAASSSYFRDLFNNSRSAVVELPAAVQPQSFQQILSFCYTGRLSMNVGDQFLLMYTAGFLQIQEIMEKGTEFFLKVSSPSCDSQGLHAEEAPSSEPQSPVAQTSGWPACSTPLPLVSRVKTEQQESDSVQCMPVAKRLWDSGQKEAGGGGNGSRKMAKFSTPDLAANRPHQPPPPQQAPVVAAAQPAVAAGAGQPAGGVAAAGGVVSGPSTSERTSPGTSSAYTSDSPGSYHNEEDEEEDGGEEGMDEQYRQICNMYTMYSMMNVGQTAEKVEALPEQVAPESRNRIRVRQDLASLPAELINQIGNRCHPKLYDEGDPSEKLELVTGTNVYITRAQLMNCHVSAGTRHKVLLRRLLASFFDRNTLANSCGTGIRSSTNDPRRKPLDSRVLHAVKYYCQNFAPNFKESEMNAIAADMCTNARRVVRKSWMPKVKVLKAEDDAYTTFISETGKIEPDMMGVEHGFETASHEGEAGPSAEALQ

NAC1 (322-485) [3] = target: T1, NAC1 (322-485); assay: ITC; single event; Table S2 prints 0.83; ITC: 20 mM HEPES pH 7.0, 0.1 M NaCl, 1 mM TCEP, 20 C (Fig 2 legend says 25 C); pull-down: 4 C with 10 ug poly(dI/dC), buffer not stated; NMR 298 K; settings: protein: recombinant; tags: His (pET28HisTEV); blunt

B1: GP1 14-mer dsDNA (dsDNA)
DNA 1: GTATGCATGTATGT
DNA 2: ACATACATGCATAC
Kd (NAC1 (322-485) [1]): 160 nM

B2: de novo motif 1 (dsDNA)
DNA 1: AACCGCCGCCAA
DNA 2: TTGGCGGCGGTT
Kd (NAC1 (322-485) [2]): 3000 nM

B3: Biotin-GP1 3'-mut (dsDNA)
DNA 1: TGTGTGTGTATGCATGACGGTATTTATT
DNA 2: AATAAATACCGTCATGCATACACACACA
binding result (GST-NAC1): binds

B4: de novo motif 2 (dsDNA)
DNA 1: AACCCCGCCCCAA
DNA 2: TTGGGGCGGGGTT
Kd (NAC1 (322-485) [3]): 820 nM

B5: Biotin-GP1 5'-mut (dsDNA)
DNA 1: TGTGTGTGTCATCATGTATGTATTTATT
DNA 2: AATAAATACATACATGATGACACACACA
binding result (GST-NAC1): binds

B6: Biotin-GP1 (dsDNA)
DNA 1: TGTGTGTGTATGCATGTATGTATTTATT
DNA 2: AATAAATACATACATGCATACACACACA
binding result (GST-NAC1): binds
